Patent publication US6034061

Experiments:
[1] = target: BMP-9 receptors expressed on HepG2 cells (ATCC HB8065)
[2] = target: BMP-9 receptors expressed on HepG2 cells (ATCC HB8065); test: 125I-BMP-9 binding to HepG2 cells
[3] = target: BMP-9 receptors expressed on HepG2 cells (ATCC HB8065); test: 125I-BMP-9 binding to HepG2 cells; the Kd told again in ng/ml
[4] = target: BMP-9 receptors expressed on HepG2 cells (ATCC HB8065); test: Scatchard analysis of 125I-BMP-9 binding to HepG2 cells
[5] = target: BMP-9 receptors expressed on HepG2 cells (ATCC HB8065); test: Scatchard analysis; 2 ng/ml 125I-BMP-9 displaced by unlabelled BMP-9 on HepG2 cells, 20 hours at 4 C

B1: recombinant human BMP-9, CHO-derived (mature region of human BMP-9 expressed from the murine/human BMP-9 fusion plasmid) (ligand)
chain: TRECSRSCPRTAPQRQVRAVTRRTRMAHVAAGSTLARRKRSAGAGSHCQKTSLRVNFEDIGWDSWIIAPKEYEAYECKGGCFFPLADDVTPTKHAIVQTLVHLKFPTKVG
modifications: iodinated (125I) where used as the tracer; unlabelled where used as the competitor or in the proliferation assay
Q: What does the source list for B1?
A: 3H-thymidine incorporation in HepG2 cells [1]: 5 fold; ED50 of 3H-thymidine incorporation in HepG2 cells [1]: 10 ng/mL; Kd [2]: 270 pM; Kd [3]: 8 ng/mL; high affinity receptors per cell (receptors per cell) [4]: 10000; Kd [5]: 300 pM
